Reference: the nanobody polyreactivity screen of Harvey et al. (2022)

Test: yeast display, Sf9 membrane polyspecificity reagent, FACS + sequencing; frameworks hold sequencing errors
Summary of the method: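 Synthetic nanobody libraries on Saccharomyces cerevisiae BJ5465 were galactose-induced for 36–48 hours, stained 1 hour at 4 °C with 10% biotinylated, detergent-solubilized Sf9 membrane reagent and enriched on streptavidin microbeads. FACS then separated cells into low and high (top ~1%) gates by anti-HA (expression) and streptavidin (reagent binding) fluorescence. Genes were colony-PCR amplified, MiSeq 2 × 250 sequenced and CDR-length filtered. A clone's polyreactivity label is that of its gate of origin.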

| Sequence | polyreactivity (PSR sort gate) |
| --- | --- |
| QVQLVESGGGLVQAGGSLRLSCAASGRTFRYNAMGWYRQAPGKERELVAGITYYGGSTSYADSVKGRFTISRDNAKNTVYLQMNSLKPEDTEVYYCNVVYNYYGRFGSWGQGTQVTVSS | high polyreactivity |
| QVQLVESGGGLVQAGGSLRLSCAASGSMFAAYAMGWYRQAPGKARELVAAISSGDGTYYADSVKGRFTISRDNAKNTVYLQRNSLKPEDTAVYYCNAYVSQRYRGSRYYYWGQGTQVTLSS | high polyreactivity |
| QVQLVESGGGLVQAGGTLRLSCAASGIIFVWNAMGWYRQAPGKERELVAAITNGGSTYYADSVKGRFTISRDNAKNTVYLQMNSLKPEDTAVYYCNVRYFFRFRDDYWGQGTQVTVSS | low polyreactivity |
| QVQLVESGGGLVQAGGSLRLSCAASGRIFWINAMGWYRQATGKERELVATISSGSTSYADSVKGRFTISRDNAKNTVYLQMNSLKPEDTAVYYCAVTLRYTRSGAYDYWGQGTQVTVSS | low polyreactivity |
| QVQLVESGGGLVQAGGSLRLSCAASGSIFGIYAMGWYRQAPGKERELVATITYSGGTTYADSVKGRFTISRDNAKNTVYLQMNSLNPEDTAVYYCAAGGDYAYDCWGQGTQVTVSS | low polyreactivity |
| QVQLVESGGGLVQAGGSLRLSCAASGFTFIRYAMGWYRQAPGKERELVASISNRGGRTYYADSVKGRFTISRDNAKNTVYLQMNSLKPEDTAVYYCAAGYSYAQYSYPFLSFAFGYWGQGTQVTVSS | high polyreactivity |
| QVQLVESGGGLVQAGGSLRLICAASGSTIVWNAMGWYRQAPGKERELVATITLSTGSTYYADSVKGRFTISRDNAKNTVYLQMNSLKPEDTAVYYCNTEIYVDIISVYGYWGQGTQVTVSS | low polyreactivity |
| QVQLVESGGGLVQAGGSLRLSCAASGRIIRYYAMGWYRQAPGKEREFVATISSGGSTNYADSVKGRFTISRDNAKNTVYLQMNSLKPEDTAVYYCNRVYRRHVWGQGTQVTVSS | high polyreactivity |
| QVQLVESGGGLVQAGGSLRLSCAASGFIFRRYTMGWYRQAPGKERELVATITRSVNTDYADSVKGRFTISRDNAKNTVYLHMNSLKPEDTAVYYCAARKYFYFPVAYDYWGQGTQVTVSS | high polyreactivity |
| QVQLVVSGGGLVQAGCTHRISCAPSGRISKLYAMGWSIPAPGKERELVAAISWRGGSTYYADSVKGRFTISRDNAKITVYLQLYSLKPEDTAVYFCNKAYPADDDYWGQGTQVSVSS | low polyreactivity |
| QVQVVESGGGLVQAGGSLRLSCAASGSIFNQYAMGWHRQAPGKERELVAAISSDGGRTYYADSVKGRFTISRDNAKNTVYLQMNSLKPEDTAVYYCNADFPAYGLQGDDYWGQGTQVTVSS | low polyreactivity |
| QVQLVESGGGLVQAGGSLRLSCASSGSTFAIYAMGWYRQAPGKESELVAAITRSGGNAYYADSVKGRFTISRDNAKNTVYLQMNSLKPEDTAVYYCNAETYYWSAYAQYDYWGQGTQVTVSS | high polyreactivity |
| QVQLVESGGGLVQAGGSLRLSCAAYGSTFQRYAMGWYRQAPGKERELVAAITLSGGNTYYADSVKGRFTISRDNAKNNVYLQMNSLKPEDTAVYYCAARRYRGYDYWGQGTQVTVSS | high polyreactivity |
| QVQLVESGGGLVQAGGSLRLSCAASGSTSRYYDMGWYRQAPGTERELVAAITWSGGTTYYADSVKGRFTISRDNAKNTVYLQMNSLKPEDTAVYYCAASRRGGLYTRYHYWGQGTQVTVSS | low polyreactivity |
| QVQLVESGGGLVQAGGSLRLSCSASGSTFRQYAMGWYRQAPGKERELVAAITWRGDNTYYADSVKGRFTISRDNAKNTVYLQMNSLKPEDTADYYCGARWSYRLYWGYGYWGQGTQVTVSS | low polyreactivity |
| QVQLVESGGGLVQAGGSLRLSCAASGFTFDYYDMGWYRQAPGKERELVAGITYSGGRTRYADSVKGRFTISRDNAKNTVYLQMNSLKPEDTAVYYCAARPGYPYRMNYWGQGTQVTVSS | low polyreactivity |
| QVQLVESGRGLVQAGGSLRLISAASGSIFVHNTMGWYSQAPGKDRELVAAITYSGGSTNYADSVKGRFTISRDNAKNTVYLQMNSLKPEDTAVYYCATRAISQFHSLGYYYWGQGTEVTVSS | low polyreactivity |
| QVQLVESGGGIVQAGGSLRLSCAASGRTFQANAMGWYRQAPGKERELVAVISSRGTRTYYADSVKGRFTISRDNAKNTVYLQMNSLKPEDTAVYYCAARVPSVGNQSGYDYWGQGTQVTVSS | high polyreactivity |
| QVQLVESGGGLVQAGGSLRLSCAASGSTFSGYAMGWYRQAPGKERELVAAITSGGITNYADSVKGRFTISLDNAKNTLYLQMNSLKPEDTAVYYCAKSVSGIGVGYDYWGQGTQVTVSS | low polyreactivity |
| QVQLVESGGGLVQAGGSLRLSCAASGSILYRNAMGWYRQAPGKERELVAAITYSGARTYYADSVKGRFTISRDNAKNSVYLQMNSLKPEDTAVYYCAATAAGYWYSAYDYWGQGTQVTVSS | low polyreactivity |
| QVQLVESGGGLFQAGGSLRIICAASGSIFGAYAMGWYRQAPGKERELVAGIRRAGDSTYYADSVKGRFTISRDYAKNTVYLLMNCMKPEDTAVYYCAAYLYLEYYYRGQGTQVTVSS | low polyreactivity |

| Sequence | polyreactivity (PSR sort gate) |
| --- | --- |
| QVQLVESGGGLVQAGGSLRLSCAASGSIFRGYTMGWYRQATGKERELVATISWSGGSTYYADSVKGRFTISRDNAKNTVYLQMNCLKPEDTAVYYCAAVWYLGIPYDYWGQGTQVTVSS | high polyreactivity |
| QVQLVESGGGLVQAGGSLRLSCAASGSTIRYNAMGWYRQAPGKERELVAAISRTGGTTYYADSVKGRFTISRDNAKNTVYLQMNSLKPEDTAVYYCNAVQAPYLRYDYWGQGTQVTVSS | high polyreactivity |
| QVQLVESAGGLVQAGGSLRLSCAASRRTFARYAIGRYRQAPGQERELVAALSRSGTCTYYADSVLGRFTISRDNAKNTVYLQKNSLKPEDCAVYYCAVDAYLGHYDYWGQGTQVTVSS | high polyreactivity |
| QFQLVESGGGLVQAGGSLRLSCAASGRIFRYYDMGWYRQAPGKERELVAAISFSGGSTYYADSVKGRFTISRDNAKNTVYLQMNSLKQEDTAVYYCAAGWRALYLSTYDYWGQGTQVTVSS | high polyreactivity |
| QVQLVQSGGGLVQAGGSLRLICAASGSIFLYYAMGWYRQAPAKERELVAGIRRGGRKNYADSVKGRFTISRDNSKNTVYLQLNSLKPEDTGVYYCAKGGYWGQCTQVTVSS | high polyreactivity |
| QVQLVESGGGLVQAGGSLRLSCAASGRIFWWYAMGWYRQAPGKERELVASISSRGTSTYYADSVKGRFTISRDNAKHTVYLQMNSLKPEDTAFYYCAARRPGRTSQDRYKYDYWGQGTQVTVSS | high polyreactivity |
| QVQHVESGGGLVQAGGSLRLSCAASGSIFSYYAMGWYRQPPGKERELVATISSGDSTYYADSVKGRFTISRDNAKKTVYLQMNSLKPEDTAVYYCARKPRIRYYPAPYDYWGQGTQVTVSS | low polyreactivity |
| QVQLVESGGGLVQAGGSLRLSCAASGSTFDPYAMGWYRQAPGIERELVAAITGRGGSTYYADSVKGRFTISRDNAKNTVYLQMNSLKPEDTAVYYCNAEGDKRRDRYDYWGQGSQVTVSS | low polyreactivity |
| QVQLVESGGGLVQAGGSLRLISAASGFTFAWYTMGWYRQAPGKERELVAAITDSGDSTYYADSVKGRFTISRDNAKNTVYLQMNSLKPEDTAVYYCATRSWYWDIWITEYDYWGQGTQVTVSS | low polyreactivity |
| QVQLVESGGGLVQAGGSLRLSCAASGRTFHYYAMGWYRQAPGKERELVAAINFSGDNTYYADSVKGRFTISRDNAKNTVYLQLNSLKPEDTAVYYCAARREYARYKGYYYWGQGTQVTVSS | low polyreactivity |
| QVQLVESGAGLVQAAASLRLSCAASGRTFIYYSMGWYRQAPGKEREFVAIISWNGTSTNYADSVKGRFTISRDNAKNTVYLQMNSLKPEDTAVYYCAASFWTDYYRYDYWGQGTQVTVSS | low polyreactivity |
| QVQLVESGGGLVQAGGSLRLSCAASGSTFGVNARGWYRQAPGKERELVAGITWTGGSSYYADSVKGRFTISRDNAKNTVYLQMNSLKPEDTAVYYCAKDWYSSYYDDSEDSWGQGTQVTVSS | low polyreactivity |
| QVQLVESGGGLVQAGGSLRLSCAASGRTFISNAMGWYRQAPVKERELVAAISRSGGSTYYADSVKGRFTISRDNAKNTVYLQMNSLKPEDTAVYYCAATGKQWRTSYDYWGQGTQVTVSS | high polyreactivity |
| QVQLVESGGGLVQAGGSLRLSCAASGRIFAAYAMGWYRQAPGKEREFVAAIRLSGGSTYYADSVKGRFTISRDNAKNTVYLQMNSLKPEDTAVYYCAARYPGVARFYYWGQGTQLTVSS | high polyreactivity |
| QVQLVESGGGLVQAGGSLRLSCAASGSTFQRYAMGWSRQAPGKERELVAAIDTVGSTNYADSVKGRFTISRDNAKNTVYLQMNSLKPEDTAVYYCAVVTPYWSFYEQVIPSNYWGQGTQVTVSS | low polyreactivity |
| QVQLVESGGGLVQAGGSLRLSCAASGSTFGPYAMGWYRQAPGKERELVATITRNGGSTYYADSVKGRFTISRDNAKNTVYLQMNILKPEDTAVYYCNAEGRWSSFTQRMDYWGQGTQVTVSS | low polyreactivity |
| QVQLVESGGGLVQAGGSLRLSCAASGSTFHTYDMGWYRQAPGKERELVAAITSGGDTNYADSVKGRFTISRDNAKNTVYLQMNSLKPEDTAVYYCNTDRWGTGKLRYNYWGQGTQVTVSS | low polyreactivity |
| QVQLQESGGGLVLAGGSLRLSCAASGSITAQAYMGWDRQAPGKEREHVAGINYGDNTNYADSVKGRFTISRDNEHRVSADEQPETGRYRGVLLRGFLEIFYYYIFWGQGTQVTVSS | high polyreactivity |
| QVQLIESGGGLVQAGGSLRLSCAASGSTFERNTMGWYRQAPGKERELVAAITSGGRTYYADSVKGRFTISRDNAKNTVYLQMNSLKPEDTAVYYCAARLGRHVSYWRSGWTNMDYWGQGTQVTVSS | high polyreactivity |
| QVQLVESGGGLVPAGGSRRLSCAASGFTFGGYAMGWYRQAPGKETELVAAMRSSGDTTYDADSVKGRFTISRDNAKKTVNLQMNSLKPEDTAVYYCAARWGTYWGGLGGDPDIDYDDWGQGTQVTVSS | low polyreactivity |
